The test has as its target T1, recombinant human VCAM-1 (human, UniProt P19320 25-698).
T1 construct: vascular cell adhesion molecule 1 (VCAM-1), human, recombinant; A bought recombinant VCAM-1 is likely the soluble extracellular part, perhaps with a tag or Fc; also called recombinant VCAM-1; vascular cell adhesion molecule 1; source: bought: R&D Systems
T1 sequence (looked up): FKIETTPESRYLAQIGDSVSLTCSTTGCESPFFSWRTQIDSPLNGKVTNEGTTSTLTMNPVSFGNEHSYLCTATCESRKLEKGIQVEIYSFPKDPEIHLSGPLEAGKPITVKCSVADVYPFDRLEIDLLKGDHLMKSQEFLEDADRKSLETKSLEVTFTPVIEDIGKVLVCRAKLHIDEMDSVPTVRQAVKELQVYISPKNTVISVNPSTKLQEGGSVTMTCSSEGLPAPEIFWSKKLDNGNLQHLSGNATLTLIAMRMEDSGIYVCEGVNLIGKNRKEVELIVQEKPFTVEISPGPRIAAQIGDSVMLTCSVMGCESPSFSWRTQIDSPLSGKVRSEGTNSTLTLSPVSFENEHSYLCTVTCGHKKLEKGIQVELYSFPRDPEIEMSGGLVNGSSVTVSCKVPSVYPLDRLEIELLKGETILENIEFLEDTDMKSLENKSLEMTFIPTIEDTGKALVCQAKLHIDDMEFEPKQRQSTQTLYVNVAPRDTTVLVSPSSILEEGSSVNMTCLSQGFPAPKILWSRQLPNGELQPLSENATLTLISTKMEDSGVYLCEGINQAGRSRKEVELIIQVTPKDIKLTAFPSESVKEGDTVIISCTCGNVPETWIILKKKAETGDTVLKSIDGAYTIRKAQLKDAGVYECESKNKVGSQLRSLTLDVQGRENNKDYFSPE
The test can be described thus: blue-shift of the quantum dot fluorescence peak (spectra by confocal microscope); VQDs mixed with recombinant human VCAM-1 in tube in 10:1 and 1:1 molar ratios, 5 hours at room temperature; a drop dried on a slide; excitation 405 nm; blue-shift seen at 1:1, not at 10:1. The settings on record: both partners purified.

Side chains are listed from the residue outwards. Ends that are not written are not given here. amino‑PEG‑coated CdSeTe/ZnS quantum dot = amino-PEG-coated CdSeTe/ZnS quantum dot; sulfo‑SMCC = sulfosuccinimidyl-4-(N-maleimidomethyl)cyclohexane-1-carboxylate

B1: VCAM-1 binding peptide functionalized QDs (VQDs) (peptide)
peptide: VHPKQHRGGSKGC([sulfo‑SMCC-amino‑PEG‑coated CdSeTe/ZnS quantum dot])
notes: source: synthetic peptide (Innovagen, Sweden), conjugated to Qdot 705 ITK Amino (PEG) Quantum Dots (Invitrogen) with sulfo-SMCC
As for B1, the binding result was “binds”.

Values taken from article PMC3877406, “Characterization of VCAM-1-Binding Peptide-Functionalized Quantum Dots for Molecular Imaging of Inflamed Endothelium” (PLoS ONE, 2013).
